Experimental data from the RNAGym collection of RNA variant scans (doi:10.7554/elife.90254).

B1: LINE1-full (parent)
chain: UACGUAGGUGGUUUUCCCCUGAUAGUGCUAAGGGGGCCUGGAAGUUUGGACUGGGCAGAGCUCAACACAGCGUGGCAAAGUGGCUGUGGCUAGACUGCCUCUCUGGAUUCCUCGUCACUCAGCAGGGCAUCUCUGAGAGAAAUGCC

Variants of: B1
Test: self-cleavage, relative activity (ratio to wild type); higher = more cleavage; in vitro, sequencing; the parent is a self-cleaving ribozyme
Variant UACGUUGGUGGUUUUCCCCUGAUAGUGCUAAGGGGGCCCGGAAGUUUGGACUGGGCAGAGCUCAACACAGCGUGGCAAAGUGGCUGUGGCUAGACUGCCUCUCUGGAUUCCUCGUCACUCAGCAGGGCAUCUCUGAGAGAAAUGCC [A6U U39C] has a self-cleavage of 0.84. For UACGUUGGUGGUUUUCCCCUGAUAGUGCUAAGGGGGCCAGGAAGUUUGGACUGGGCAGAGCUCAACACAGCGUGGCAAAGUGGCUGUGGCUAGACUGCCUCUCUGGAUUCCUCGUCACUCAGCAGGGCAUCUCUGAGAGAAAUGCC [A6U U39A], the self-cleavage was 1.16. Variant UACGUUGGUGGUUUUCCCCUGAUAGUGCUAAGGGGGCCUGGAAGUUUGGACUGGGCAGAGCUCAACACAGCGUGGCAAAGUGGCUGUGGCUAGACUGCCUCUCUGGAUUCCUCGUCACUCAGCAGGGCAUCUUUGAGAGAAAUGCC [A6U C133U] has a self-cleavage of 1.04. Variant UACGUUGGUGGCUUUCCCCUGAUAGUGCUAAGGGGGCCUGGAAGUUUGGACUGGGCAGAGCUCAACACAGCGUGGCAAAGUGGCUGUGGCUAGACUGCCUCUCUGGAUUCCUCGUCACUCAGCAGGGCAUCUCUGAGAGAAAUGCC [A6U U12C] has a self-cleavage of 1.43. For UACGUUGGUGGUUUUCCCCUGAUAGUGCUAAGGGGGCCUGGAAGUUUGGACUGGGCAGAGCUCAACACAGCGUGGCAAAGUGGCUGUGGCUAGACUACCUCUCUGGAUUCCUCGUCACUCAGCAGGGCAUCUCUGAGAGAAAUGCC [A6U G97A], the self-cleavage was 0.12. Variant UACGUUGGUGGUUUUCCCCUGAUAGUGCUAAGGGGGCCUGGAAGUCUGGACUGGGCAGAGCUCAACACAGCGUGGCAAAGUGGCUGUGGCUAGACUGCCUCUCUGGAUUCCUCGUCACUCAGCAGGGCAUCUCUGAGAGAAAUGCC [A6U U46C] has a self-cleavage of 0.14. With UACGUUGGUGGUUUUCCCCUGAUAGUGCUAAGGGGGCCUGGAAGUUUGGACUGGGCAGAGCUCAACACAGCGUGGCAAGGUGGCUGUGGCUAGACUGCCUCUCUGGAUUCCUCGUCACUCAGCAGGGCAUCUCUGAGAGAAAUGCC [A6U A79G] the self-cleavage was 0.8. Variant UACGUUGGUGGUUUUCCCCUGAUAGUGCUAAGGGGGCCUGGAAGUUUGGACUGGGCAGAGCUCAACACAGCGUGGCAAAGUGGCUGUGGCUAGACUGCCUCUCUGGAUUCCUCGUCACUCAGCAGGGCAUCUCUGAGAGAAAUGUC [A6U C145U] has a self-cleavage of 0.48. UACGUUGGUGGUUUUCCCCUGAUAGUGCUAAGGGGGCCUGGAAGUUUGGACUGGGCAGAGCUCAACACAGCGUGGCAAAGUGGCUGUGGCUAGACUGCCUCUCUGGAUUCCUCGUCACUCAGCAGGACAUCUCUGAGAGAAAUGCC [A6U G127A] gave a self-cleavage of 0.59. Variant UACGUUGGUGGUUUUCCCCUGAUAGUGCUAAGGGGGCCUGGAAGUUUGGACUGGGCAGAGCUCAGCACAGCGUGGCAAAGUGGCUGUGGCUAGACUGCCUCUCUGGAUUCCUCGUCACUCAGCAGGGCAUCUCUGAGAGAAAUGCC [A6U A65G] has a self-cleavage of 0.26. With UACGUUGGUGGUUUUCCCCUGAUAGUGCUAAGGGGGCCUGGAAGUUUGGACUGGGCAGAGCUCAUCACAGCGUGGCAAAGUGGCUGUGGCUAGACUGCCUCUCUGGAUUCCUCGUCACUCAGCAGGGCAUCUCUGAGAGAAAUGCC [A6U A65U] the self-cleavage was 0.33. In the case of UACGUGGGUGGUUUUCCCCUGAUAGUGCUAAGGGGGCCUGGAAGUUUGGACUGGGCAGAGCUCAACACAGCGUGGCAAAGUGGCUGUGGCUAGACUGCCUCUCUGGAUUCCUCGUCACUCAGCAGGGCAUCUCUGAGAGAAACGCC [A6G U143C], the self-cleavage is reported as 0.57. UACGUUGGUGGUUUUCCCCUGAUAGUGCUAAGGGGGCCUGGGAGUUUGGACUGGGCAGAGCUCAACACAGCGUGGCAAAGUGGCUGUGGCUAGACUGCCUCUCUGGAUUCCUCGUCACUCAGCAGGGCAUCUCUGAGAGAAAUGCC [A6U A42G] showed a self-cleavage of 0.58. UACGUUGGUGGUUUUCCCCUGAUAGUGCUAAGGGGGCCUGGAAGUUUGGACUGGGCAGAGCUCAACACAGCGUGGCAGAGUGGCUGUGGCUAGACUGCCUCUCUGGAUUCCUCGUCACUCAGCAGGGCAUCUCUGAGAGAAAUGCC [A6U A78G] gave a self-cleavage of 0.77. In the case of UACGUUGGUGGUUCUCCCCUGAUAGUGCUAAGGGGGCCUGGAAGUUUGGACUGGGCAGAGCUCAACACAGCGUGGCAAAGUGGCUGUGGCUAGACUGCCUCUCUGGAUUCCUCGUCACUCAGCAGGGCAUCUCUGAGAGAAAUGCC [A6U U14C], the self-cleavage is reported as 0.92. UACGUUGGUGGUUUUCCCCUGAUAGUGCUAAGGGGGCCUGGAAGUUUGGACUGGGCAGAGCUCAACACAGCGUGGCAAAGUGGCUGUGGCUAGAAUGCCUCUCUGGAUUCCUCGUCACUCAGCAGGGCAUCUCUGAGAGAAAUGCC [A6U C95A] gave a self-cleavage of 0.07. UACGUUGGUGGUUUUCCCCUGAUAGUGCUAAGGGGGCCUGGAAGUUUGGACUGGGCAGAGCUCAACACAGCGUGGCAAAGUGGCUGUGGCUAGACUGCCUCUCUGGAUUCCUCGUCACUCAGCAGGGCAUCUCUGAGAGAGAUGCC [A6U A141G] showed a self-cleavage of 0.94. With UACGUGGGUGGUUUUCCCCUGAUAGUGCUAAGGGGGCCUGGAAGUUUGGACUGGGCAGAGCUCAACACAGCGUGGCAAAGUGGCUGUGGCUAGACUGCCUCUCUGGAUUCCUCGUCACUCAGCAGGGCAUCUCGGAGAGAAAUGCC [A6G U134G] the self-cleavage was 0.8. UACGUUGGUGGUUUUCCCCCGAUAGUGCUAAGGGGGCCUGGAAGUUUGGACUGGGCAGAGCUCAACACAGCGUGGCAAAGUGGCUGUGGCUAGACUGCCUCUCUGGAUUCCUCGUCACUCAGCAGGGCAUCUCUGAGAGAAAUGCC [A6U U20C] gave a self-cleavage of 1.19. UACGUUGGUGGUUUUCCCCAGAUAGUGCUAAGGGGGCCUGGAAGUUUGGACUGGGCAGAGCUCAACACAGCGUGGCAAAGUGGCUGUGGCUAGACUGCCUCUCUGGAUUCCUCGUCACUCAGCAGGGCAUCUCUGAGAGAAAUGCC [A6U U20A] showed a self-cleavage of 1.21. Work on UACGUUGGUGGUUUACCCCUGAUAGUGCUAAGGGGGCCUGGAAGUUUGGACUGGGCAGAGCUCAACACAGCGUGGCAAAGUGGCUGUGGCUAGACUGCCUCUCUGGAUUCCUCGUCACUCAGCAGGGCAUCUCUGAGAGAAAUGCC [A6U U15A] yielded a self-cleavage of 0.63. Variant UACGUUGGUGGUUUCCCCCUGAUAGUGCUAAGGGGGCCUGGAAGUUUGGACUGGGCAGAGCUCAACACAGCGUGGCAAAGUGGCUGUGGCUAGACUGCCUCUCUGGAUUCCUCGUCACUCAGCAGGGCAUCUCUGAGAGAAAUGCC [A6U U15C] has a self-cleavage of 1.09. UACGUUGGUGGUUUUCCCCUGAUAGUGCUAAGGGGGCCUGGAAGUUUGGACUGGGUAGAGCUCAACACAGCGUGGCAAAGUGGCUGUGGCUAGACUGCCUCUCUGGAUUCCUCGUCACUCAGCAGGGCAUCUCUGAGAGAAAUGCC [A6U C56U] showed a self-cleavage of 0.21. UACGUUGGUGGUUUUCCCCUGAUAGUGCUAAGGGGGCCUGGAAGUUUGGACUGGGCAGAGCUCAACACAGCGUGGCAAAGUGGCUGUGGCUAGACUGCCUCUCUGGAUUCCUCGUCACUCAGCAGGGCAUCUCUGAGAGAAAUGCC [A6U] showed a self-cleavage of 0.99. For UACGUUGGUGGUUUUCCCCUGGUAGUGCUAAGGGGGCCUGGAAGUUUGGACUGGGCAGAGCUCAACACAGCGUGGCAAAGUGGCUGUGGCUAGACUGCCUCUCUGGAUUCCUCGUCACUCAGCAGGGCAUCUCUGAGAGAAAUGCC [A6U A22G], the self-cleavage was 0.87. For UACGUUGGUGGUUUUCCCCUGAUAGUGCUAAGGGGGCCUGGAAGCUUGGACUGGGCAGAGCUCAACACAGCGUGGCAAAGUGGCUGUGGCUAGACUGCCUCUCUGGAUUCCUCGUCACUCAGCAGGGCAUCUCUGAGAGAAAUGCC [A6U U45C], the self-cleavage was 1.35. Work on UACGUUGGUGGUUUUCCCCUGAUAGUGCUAAGGGGGCCUGGAAGUUUGGACUGGGCAGAGCUCAACACAGCGUGGCAAAGUGGCUGUGGCUAGACUGCCUCUCUGGAUUCCUCGUCACUCAGCAGGGCAUCUCUGAGAGGAAUGCC [A6U A140G] yielded a self-cleavage of 0.77. In the case of UACGUUGGUGGUUUUCCCCUGAAAGUGCUAAGGGGGCCUGGAAGUUUGGACUGGGCAGAGCUCAACACAGCGUGGCAAAGUGGCUGUGGCUAGACUGCCUCUCUGGAUUCCUCGUCACUCAGCAGGGCAUCUCUGAGAGAAAUGCC [A6U U23A], the self-cleavage is reported as 0.26. UACGUUGGUGGUUUUCCCCUGACAGUGCUAAGGGGGCCUGGAAGUUUGGACUGGGCAGAGCUCAACACAGCGUGGCAAAGUGGCUGUGGCUAGACUGCCUCUCUGGAUUCCUCGUCACUCAGCAGGGCAUCUCUGAGAGAAAUGCC [A6U U23C] showed a self-cleavage of 1.31. With UACGUUGGUGGUUUUCCCCUGAUAGUGCUAAGGGGGCCUGGAAGUUUGGACUGGGCAGAGCUGAACACAGCGUGGCAAAGUGGCUGUGGCUAGACUGCCUCUCUGGAUUCCUCGUCACUCAGCAGGGCAUCUCUGAGAGAAAUGCC [A6U C63G] the self-cleavage was 0.19. For UACGUUGGUGGUUUUCCCCUGAUAGUGCUAAGGGGGCCUGGAAGUUUGGACUGGGCAGAGCUCAACACAGCGUGGCAAAGUGGCUGUGGCUAGACUGCCUCUCUGGAUUCCUCGUCACUCAGCAGGGCUUCUCUGAGAGAAAUGCC [A6U A129U], the self-cleavage was 1.52. For UACGUUGGUGGUUUUCCCCUGAUAGUGCUAAGGGGGCCUGGAAGUUUGGACUGGGCAGAGCUCAACACAGCGUGUCAAAGUGGCUGUGGCUAGACUGCCUCUCUGGAUUCCUCGUCACUCAGCAGGGCAUCUCUGAGAGAAAUGCC [A6U G75U], the self-cleavage was 0.53. Variant UACGUUGGUGGUUUUCCCCUGAUAGUGCUAAGGGGGCCUGGAAGUUUGGACUGGGCAGAGCUCAACACAGCGUGGCAAAGUGGCUGUGGCUAGACUGCCUCUCUGGAUUCCUCGUCACUCAGCGGGGCAUCUCUGAGAGAAAUGCC [A6U A124G] has a self-cleavage of 0.6. For UACGUUGGUGGUUUUCCCCUGAUAGUGCUAAGGGGGCCUGGAAGUUUGGACUGGGCGGAGCUCAACACAGCGUGGCAAAGUGGCUGUGGCUAGACUGCCUCUCUGGAUUCCUCGUCACUCAGCAGGGCAUCUCUGAGAGAAAUGCC [A6U A57G], the self-cleavage was 0. UACGUUGGUGGUUUUCCCCUGAUAGUGCUAAGGGGGCCUGGAAGUUUGGACUGGGCUGAGCUCAACACAGCGUGGCAAAGUGGCUGUGGCUAGACUGCCUCUCUGGAUUCCUCGUCACUCAGCAGGGCAUCUCUGAGAGAAAUGCC [A6U A57U] showed a self-cleavage of 0.08. In the case of UACGUUGGUGGUUUUCCCCUGAUAGUGCUAAGGUGGCCUGGAAGUUUGGACUGGGCAGAGCUCAACACAGCGUGGCAAAGUGGCUGUGGCUAGACUGCCUCUCUGGAUUCCUCGUCACUCAGCAGGGCAUCUCUGAGAGAAAUGCC [A6U G34U], the self-cleavage is reported as 1.02. In the case of UACGUUGGUGGUUUUCCCCUGAUAGUGCUAAGGGGGCCUGGAAGUUUGGGCUGGGCAGAGCUCAACACAGCGUGGCAAAGUGGCUGUGGCUAGACUGCCUCUCUGGAUUCCUCGUCACUCAGCAGGGCAUCUCUGAGAGAAAUGCC [A6U A50G], the self-cleavage is reported as 0.72. With UACGUUGGUGGUUUUCCCCUGAUAGUGCUAAGGGGGCCUGGAAGUUUGGACUGGGCAGAGCUCAACACAGCGUGGCAAAGUGGCUGUGGCUAGACUGCCUCUCUGGGUUCCUCGUCACUCAGCAGGGCAUCUCUGAGAGAAAUGCC [A6U A107G] the self-cleavage was 1.05. With UACGUUGGUGGUUUUCCCCUGAUAGUGCUAAGGGGGCCUGGAAGUUUGGACUGGGCAGAGCUCAACACAGCGUGGCAAAGUGGCUGUGGCUAGACUGCCUCUCUGGAUUCCUCGUCACUCAGCAGGGCAUCUCUGAGGGAAAUGCC [A6U A138G] the self-cleavage was 1.15.
